Test results: article PMC11109316, “In vivo neutralization of coral snake venoms with an oligoclonal nanobody mixture in a murine challenge model” (Nature Communications, 2024)

B1: TPL0629_01_D11 (VHH)
VHH: QVQLQESGGGLVQAGGSLRLSCAGSGDALGSYTMGWFRQAPGGGRDLVAQISVDGSSTYHLDSVRGRFTASRDNAKNTVYLEMNSLNSEDTAVYYCAAAPLLRGNYDYWGQGTQVTVSS
notes: also called anti-αNTx VHH; monovalent VHH
B2: TPL0629_01_A07 (VHH)
VHH: QVQLQESGGGLVQAGGSLRLSCTASEGTVSYSTVGWFRQAPGGGRDLVAQSGSSDEDTHVAGSVKGRFTISRDNTNNTVYLQMSSLKPEDSAVYYCAAAPGDQYKYWGQGTQVTVSS
notes: also called anti-αNTx VHH
B3: TPL0629_01_G06 (VHH)
VHH: QVQLQESGGGLVQAGGSLRLSCAASGRAFSSYTMGWFRQAPGDMRELVAQITSSGSSTYHIDSVEGRFAISRDNAKNTVYLQMNSLQPEDAAIYYCAGGLNAYQYWGQGTQVTVSS
notes: also called anti-αNTx VHH

Biological target: T1, α-cobratoxin (Naja kaouthia, UniProt P01391)
T1 construct: also called long chain αNTx from Naja kaouthia; source: bought: Latoxan
Assay: DELFIA (dose-response, capture format)
Conditions: both partners purified

Q: Does B1 bind?
A: Result: no binding (tested: 1 µM)

Q: Does B2 bind?
A: Result: no binding (tested: 1 µM)

Q: Does B3 bind?
A: Result: no binding (tested: 1 µM)
